Results on two molecules are retold here after patent publication US20250313631A1 (HUMMINGBIRD BIOSCIENCE PTE, published 2025).

The target in assay [1] is T1, recombinant human VISTA (His-tagged) (human, UniProt Q9H7M9 33-194).
T1 construct: bought soluble protein (Sino Biological); also called hVISTA; human VISTA polypeptide
The assay is described as follows: BLI (Octet QK384): His-tagged human VISTA on anti-Penta-HIS tips, V4 1000 to 31.3 nM as analyte, global fit. On the technique in general: BLI is a label-free optical method that tracks binding on a fibre tip over time.
Method: (§1) All measurements were performed at 25° C. with agitation at 1000 rpm. Kinetic measurements for antigen binding were performed by loading anti-VISTA antibody at different concentrations (indicated in the Figures) for 120 s, followed by a 120 s dissociation time by transferring the biosensors into assay buffer containing wells. Sensograms were referenced for buffer effects and then fitted using the Octet QK384 user software (Pall ForteBio, USA).
(§2) Kinetic responses were subjected to a global fitting using a one site binding model to obtain values for association (kon), dissociation (koff) rate constants and the equilibrium dissociation constant (KD). Only curves that could be reliably fitted with the software (R²>0.90) were included in the analysis.

For assay [2], the target named is T1, recombinant human VISTA (His-tagged). The assay is described as follows: BLI (Octet QK384): His-tagged human VISTA on anti-Penta-HIS tips, V4 1000 to 31.3 nM as analyte, global fit; value of the table column kdis(1/s).
Method: as §1, §2
Assay [3] shares this target. The assay is described as follows: antigen-binding ELISA; HMBD-002 in F5, day 10 at 40°C.
Assay [4] shares this target. Put plainly: antigen-binding ELISA; HMBD-002 10 mg/mL in F6, day 0. (In general: In an ELISA, binding on a coated surface is turned into a signal by an enzyme label.)
For assay [5] the target is unchanged. Put plainly: ELISA on coated human VISTA, antibody diluted in buffer of pH 6.5.
Method: 384-well plates were coated with 1 μg/ml of target antigen diluted in PBS for 16 hrs at 4° C. […] After washing, plates were developed with colorimetric detection substrate 3,3′,5,5′-tetramethylbenzidine (Turbo-TMB; Pierce) for 10 min.
Assay [6] has the same target. Put plainly: antigen-binding ELISA; HMBD-002 in F1, day 20 at 40°C.
Assay [7] shares this target. The assay is described as follows: antigen-binding ELISA; HMBD-002 10 mg/mL in F2, day 0.
For assay [8] the target is unchanged. Put plainly: antigen-binding ELISA; HMBD-002 in F10, day 20 at 40°C.
The target is the same in assay [9]. Put plainly: antigen-binding ELISA; reference standard run with the day 10 samples.
Assay [10] has the same target. The assay is described as follows: antigen-binding ELISA; HMBD-002 in F6, day 10 at 40°C.

B1: anti-VISTA clone 4M2-C12 IgG1 (antibody)
heavy: not shown
light: DIVITQTPAILSTSPGEKVTMTCRASSSVGYIHWYQQKPGSSPKPWIYATSNLASGVPARFSGSGSGTSNSLTITRVEAEDAATYYCQQWSSYPPITFGGGTKLEVKRTVAAPSVFIFPPSDEQLKSGTASVVCLLNNFYPREAKVQWKVDNALQSGNSQESVTEQDSKDSTYSLSSTLTLSKADYEKHKVYACEVTHQGLSSPVTKSFNRGEC
notes: mouse variable regions on human IgG1/kappa constant regions; also called V4; V4pr
A word on the kon: it is the second-order rate constant of association. The term koff denotes the first-order rate constant of dissociation. For B1, the kon in assay [1] was 45400 M⁻¹ s⁻¹. Further, the koff in assay [2] is less than 1e-07 s⁻¹.

B2: V4-C26 hIgG4 (antibody)
heavy: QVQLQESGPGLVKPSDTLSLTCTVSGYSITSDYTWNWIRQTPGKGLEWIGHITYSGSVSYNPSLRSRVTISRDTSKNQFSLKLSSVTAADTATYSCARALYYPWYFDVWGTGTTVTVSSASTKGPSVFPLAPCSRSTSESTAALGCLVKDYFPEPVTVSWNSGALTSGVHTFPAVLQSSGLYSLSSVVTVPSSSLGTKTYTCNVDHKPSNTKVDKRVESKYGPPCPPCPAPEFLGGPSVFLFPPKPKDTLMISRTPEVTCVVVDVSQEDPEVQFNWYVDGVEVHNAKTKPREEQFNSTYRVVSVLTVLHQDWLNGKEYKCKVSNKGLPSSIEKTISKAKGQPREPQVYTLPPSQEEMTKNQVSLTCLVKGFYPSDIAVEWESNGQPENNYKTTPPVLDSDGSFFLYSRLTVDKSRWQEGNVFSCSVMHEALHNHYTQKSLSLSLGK
light: EIVLTQSPATLSLSPGERATLSCRASSSVGYIHWYQQKPGQAPRPIIYTTSNRATGIPARFSGSGSGTDNTLTISSLEPEDSAVYYCQQWSSYPPITFGGGTKLEVKRTVAAPSVFIFPPSDEQLKSGTASVVCLLNNFYPREAKVQWKVDNALQSGNSQESVTEQDSKDSTYSLSSTLTLSKADYEKHKVYACEVTHQGLSSPVTKSFNRGEC
notes: human IgG4 (S228P)/kappa format; also called HMBD-002; HMBD-002-V4C26
Broadly, the EC50 is the midpoint of the concentration-response curve. For the molecule B2, the EC50 was found to be 34.1 pM in assay [3]; 29.4 pM in assay [4]; 36.3 pM in assay [5]; 17.2 pM in [6]; 33.9 pM in assay [7]; 23.5 pM in assay [8]. Besides, the figures for the EC50 in assay [9] and in assay [10] were 25.3 pM and 30.6 pM, respectively.
